Measurements from patent US20130130922.
Read-outs that look alike come from different tables or passages of the source.

Key:
[1] = biological target: M.SssI (original) (Spiroplasma sp.?) (UniProt P15840); conditions: transalkylation ~2 orders of magnitude lower than double mutant; AdoMet analogs; DNA for this comparison not explicitly stated
[2] = biological target: M.SssI Q142A/N370A Q142A,N370A (Spiroplasma sp.?) (UniProt P15840); conditions: Ado-6-amine 40 uM, Hin6I protection
[3] = biological target: M.SssI Q142A/N370A Q142A,N370A (Spiroplasma sp.?) (UniProt P15840); conditions: Ado-11-amine 160-320 uM, no Mg, MTase:DNA 3.6:1, Hin6I protection
M.HpaII (original) = biological target: T1, M.HpaII (original) (UniProt P15446); conditions: ~2 orders of magnitude lower transalkylation than double mutant
T1 sequence: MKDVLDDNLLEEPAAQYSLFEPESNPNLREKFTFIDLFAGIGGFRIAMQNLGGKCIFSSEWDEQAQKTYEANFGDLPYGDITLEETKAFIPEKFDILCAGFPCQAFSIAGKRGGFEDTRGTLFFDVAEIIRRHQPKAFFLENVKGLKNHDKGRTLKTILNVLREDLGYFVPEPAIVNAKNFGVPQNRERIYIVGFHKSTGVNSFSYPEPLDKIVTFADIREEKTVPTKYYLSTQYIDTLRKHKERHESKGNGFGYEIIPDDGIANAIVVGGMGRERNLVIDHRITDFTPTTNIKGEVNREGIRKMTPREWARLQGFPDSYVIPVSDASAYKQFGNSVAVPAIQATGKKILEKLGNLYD

[4] = biological target: M.SssI Q142A/N370A Q142A,N370A (Spiroplasma sp.?) (UniProt P15840)

Chain of M.SssI Q142A/N370A Q142A,N370A (Spiroplasma sp.?) (P15840 whole entry Q142A/N370A): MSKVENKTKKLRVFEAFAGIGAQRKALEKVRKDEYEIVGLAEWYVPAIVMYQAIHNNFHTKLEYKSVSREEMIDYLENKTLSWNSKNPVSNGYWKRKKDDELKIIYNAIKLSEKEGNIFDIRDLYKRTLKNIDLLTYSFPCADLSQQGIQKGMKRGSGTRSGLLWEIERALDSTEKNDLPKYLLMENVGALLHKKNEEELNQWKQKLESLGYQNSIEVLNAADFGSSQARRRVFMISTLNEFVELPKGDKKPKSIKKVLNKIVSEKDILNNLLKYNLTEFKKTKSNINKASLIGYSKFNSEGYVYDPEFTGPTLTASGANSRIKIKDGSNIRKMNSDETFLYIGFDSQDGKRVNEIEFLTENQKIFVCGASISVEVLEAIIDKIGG
Chain of M.SssI (original) (Spiroplasma sp.?) (P15840 whole entry): as the sequence (P15840 whole entry Q142A/N370A) above, with A142Q, A370N counted along it

1343 bp DNA fragment with 18 SssI sites
binding signal (fold of Q142A/N370A) [1]: 0.01
activity ([2]; 10 mM MgCl2, MTase:DNA 2:1, 37 C 2 h): 30 % protected
activity ([2]; no MgCl2, MTase:DNA 2:1, 37 C 2 h): 70 % protected
activity [3]: 50 % protected

DNA with CCGG sites (unspecified)
binding signal (fold of Q104A/N335A) (M.HpaII (original)): 0.01

Control-Sss nonspecific fragment (no target sites)
activity ([4]; nonspecific probe, same conditions): < 1 % recovered

Control-Sss specific fragment (two SssI sites)
activity ([4]; Ado-6-amine 50 uM, 1450 nM enzyme, 37 C 30 min, with human genomic DNA): 80 % recovered
